Several values for one entry are separate records, joined by “and”; a condition that tells them apart may be missing. Identical values can stand only once. Each block holds one binder with its values, some of them ahead of it.
Assays:
[1] = target: T1, CEACAM1 (Sino Biological) (human, UniProt P13688 35-428, limits assumed); experiment: SPR multi-cycle, IgG on Protein A
T1 construct: may be the same as CEACAM1-HIS; also called hCEACAM1; biotinylated soluble CEACAM1
T1 sequence: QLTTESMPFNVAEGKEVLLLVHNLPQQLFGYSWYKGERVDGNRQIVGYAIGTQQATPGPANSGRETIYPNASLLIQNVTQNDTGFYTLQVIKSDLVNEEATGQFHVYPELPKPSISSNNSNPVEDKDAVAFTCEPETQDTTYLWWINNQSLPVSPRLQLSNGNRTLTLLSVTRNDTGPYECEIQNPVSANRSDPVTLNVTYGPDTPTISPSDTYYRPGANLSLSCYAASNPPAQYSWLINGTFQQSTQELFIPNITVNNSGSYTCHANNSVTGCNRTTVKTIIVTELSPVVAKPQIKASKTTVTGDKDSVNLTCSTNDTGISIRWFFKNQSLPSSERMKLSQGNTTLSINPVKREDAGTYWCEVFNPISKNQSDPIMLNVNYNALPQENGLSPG

[2] = target: T1, CEACAM1 (Sino Biological); experiment: SPR single-cycle
In short: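 Humanized affinity-matured IgGs from crude supernatants captured on Protein A to ~100 RU, with CEACAM1 analyte injected at 25–100 nM (three-point, two-fold) in HBS-P+ without regeneration. 200 s association per injection, 300 s single dissociation; reference-channel and blank subtracted.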

[3] = target: T2, CEACAM1-HIS (Sino Biologics Inc.) (Homo sapiens (Human), UniProt P13688 35-428); experiment: SPR single-cycle, IgG on Protein A
T2 construct: bought; not shown: His tag
T2 sequence: T1 sequence
In short: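 Single-cycle kinetics at 25° C in HBS-P+ (pH 7.4), antibodies from HEK EBNA supernatants at 1 μg/mL captured on Protein A (~100 RU). CEACAM1 injected at 3.125–50 nM (2-fold, 5 points), 150 s association, 150 s dissociation. Reference-channel and blank-run subtraction applied.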

relative KD to Parent [1]: 1 ratio | Kd [2]: 551 nM | fold better than Parent (KD) [2]: 1 fold
B1: VH2 N56Q/Vκ4 S27(f)A IgG (antibody, V domains shown)
VH: EVQLLESGGGLVQPGGSLRLSCAASGFSFSDYYLYWVRQAPGKGLEWVATISVGGGQTSYADSVKGRFTISRDNSKNTLYLQMNSLRAEDTAMYYCTRGLYYGPAWFAYWGQGTLVTVSS
VL: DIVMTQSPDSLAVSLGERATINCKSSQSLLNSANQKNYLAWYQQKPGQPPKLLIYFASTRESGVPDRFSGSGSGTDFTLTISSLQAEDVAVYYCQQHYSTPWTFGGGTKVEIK
notes: IgG4 S241P, kappa; also called Parent; Parent IgG

Kd [3]: 47.6 nM and 43.2 nM
B2: chimeric parental antibody VH0/Vκ0 (antibody, IgG4, V domains shown)
VH: EVQLVESGGGFVKPGGSLKLSCAASGFSFSDYYLYWVRQTPEKRLEWVATISVGGGNTSYPDSVKGRFTISRDNAKNNLYLQMSSLKSEDTAMYYCTRGLYYGPAWFAYWGQGTLVTVSA
VL: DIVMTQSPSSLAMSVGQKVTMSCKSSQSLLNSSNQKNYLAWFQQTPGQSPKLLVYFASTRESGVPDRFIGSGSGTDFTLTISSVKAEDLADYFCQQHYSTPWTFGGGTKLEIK
notes: IgG4 (S241P), kappa; also called Chimera; chimeric antibody

From US20250388666A1 (BRIGHAM AND WOMEN S HOSPITAL, published 2025)
